Reference: patent publication US20200262877A1, “ION CHANNEL-BINDING PEPTIDES AND METHODS OF USE THEREOF” (priority 2017, published 2020)

What was measured:
Cav2.2 = target: T1, Cav2.2 (Homo sapiens, UniProt Q00975); experiment: cell-based; conditions: 100% = no change, <100% = inhibition
T1 construct: host or cells: HEK293 or CHO
Summary of the method: (§1)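 Peptides were tested in duplicate at final 20 μM and 200 nM, with concentration set by amino acid analysis, in HEPES-buffered saline. They were applied for at least 5 min to HEK293 or CHO cells transfected with each channel. Currents were expressed as % inhibition, 1-(Ipeptide/Icontrol)×100, or % activation, Ipeptide/Icontrol×100, against a channel-matched reference compound.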

Cav2.1 = target: T2, Cav2.1 (Homo sapiens, UniProt O00555); experiment: cell-based; conditions: 100% = no change, <100% = inhibition
T2 construct: host or cells: HEK293 or CHO
Summary of the method: as §1

Kv2.1 = target: T3, Kv2.1 (Homo sapiens, UniProt Q14721); experiment: cell-based; conditions: 100% = no change, <100% = inhibition
T3 construct: host or cells: HEK293 or CHO
T3 sequence (Q14721 whole entry): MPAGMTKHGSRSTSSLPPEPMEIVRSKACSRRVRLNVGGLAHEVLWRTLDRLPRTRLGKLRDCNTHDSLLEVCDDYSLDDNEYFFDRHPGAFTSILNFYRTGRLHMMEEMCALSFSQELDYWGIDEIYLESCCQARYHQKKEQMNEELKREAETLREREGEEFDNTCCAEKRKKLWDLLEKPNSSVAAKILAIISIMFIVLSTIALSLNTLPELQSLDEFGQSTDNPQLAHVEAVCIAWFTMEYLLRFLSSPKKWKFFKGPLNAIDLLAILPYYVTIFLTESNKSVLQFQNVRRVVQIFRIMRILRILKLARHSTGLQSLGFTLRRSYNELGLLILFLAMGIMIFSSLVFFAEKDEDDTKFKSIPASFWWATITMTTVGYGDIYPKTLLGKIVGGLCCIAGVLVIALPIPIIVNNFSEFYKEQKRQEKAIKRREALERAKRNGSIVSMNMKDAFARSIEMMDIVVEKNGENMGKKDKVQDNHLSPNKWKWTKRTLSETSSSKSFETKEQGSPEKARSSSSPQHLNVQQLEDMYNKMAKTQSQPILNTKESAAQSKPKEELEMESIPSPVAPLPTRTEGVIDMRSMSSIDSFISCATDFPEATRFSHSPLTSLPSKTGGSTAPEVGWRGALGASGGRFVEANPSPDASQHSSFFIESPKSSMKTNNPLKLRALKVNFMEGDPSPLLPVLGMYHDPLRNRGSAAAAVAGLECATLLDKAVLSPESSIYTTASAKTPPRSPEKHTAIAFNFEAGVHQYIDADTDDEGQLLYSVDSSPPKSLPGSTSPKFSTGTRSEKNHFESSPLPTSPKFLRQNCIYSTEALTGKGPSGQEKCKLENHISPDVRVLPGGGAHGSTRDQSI
Summary of the method: as §1

GABA = experiment: Ion channel panel (IonWorks Barracuda): GABA; type: cell-based; conditions: 100% = no change, <100% = inhibition
Summary of the method: as §1

Kv1.3 = target: T4, Kv1.3 (Homo sapiens, UniProt P22001); experiment: cell-based; type: cell-based; conditions: 100% = no change, <100% = inhibition
T4 construct: host or cells: HEK293 or CHO
Summary of the method: as §1

Kv1.1 = target: T5, Kv1.1 (Homo sapiens, UniProt Q09470); experiment: cell-based; type: cell-based; conditions: 100% = no change, <100% = inhibition
T5 construct: host or cells: HEK293 or CHO
Summary of the method: as §1

Kv1.2 = target: T6, Kv1.2 (Homo sapiens, UniProt P16389); experiment: cell-based; type: cell-based; conditions: 100% = no change, <100% = inhibition
T6 construct: host or cells: HEK293 or CHO
Summary of the method: as §1

α4β2 = target: T7, α4β2 (Homo sapiens, UniProt P17787+P43681); experiment: Ion channel panel (IonWorks Barracuda): α4β2; type: cell-based; conditions: 100% = no change, <100% = inhibition
T7 construct: host or cells: HEK293 or CHO
Summary of the method: as §1

TRPV1 = target: T8, TRPV1 (Homo sapiens, UniProt Q8NER1); experiment: Ion channel panel (IonWorks Barracuda): TRPV1; type: cell-based; conditions: 100% = no change, <100% = inhibition
T8 construct: host or cells: HEK293 or CHO
Summary of the method: as §1

Nav1.7 = target: T9, Nav1.7 (Homo sapiens, UniProt Q15858); experiment: cell-based; type: cell-based; conditions: 100% = no change; for Activity of Nav1.7 with peptide, expressed as a percentage of the reference compound: peptide at 0.2 μM; for Activity of Nav1.7 with peptide (percentage of the reference compound): peptide at 20 μM
T9 construct: host or cells: HEK293 or CHO
T9 sequence (Q15858 whole entry): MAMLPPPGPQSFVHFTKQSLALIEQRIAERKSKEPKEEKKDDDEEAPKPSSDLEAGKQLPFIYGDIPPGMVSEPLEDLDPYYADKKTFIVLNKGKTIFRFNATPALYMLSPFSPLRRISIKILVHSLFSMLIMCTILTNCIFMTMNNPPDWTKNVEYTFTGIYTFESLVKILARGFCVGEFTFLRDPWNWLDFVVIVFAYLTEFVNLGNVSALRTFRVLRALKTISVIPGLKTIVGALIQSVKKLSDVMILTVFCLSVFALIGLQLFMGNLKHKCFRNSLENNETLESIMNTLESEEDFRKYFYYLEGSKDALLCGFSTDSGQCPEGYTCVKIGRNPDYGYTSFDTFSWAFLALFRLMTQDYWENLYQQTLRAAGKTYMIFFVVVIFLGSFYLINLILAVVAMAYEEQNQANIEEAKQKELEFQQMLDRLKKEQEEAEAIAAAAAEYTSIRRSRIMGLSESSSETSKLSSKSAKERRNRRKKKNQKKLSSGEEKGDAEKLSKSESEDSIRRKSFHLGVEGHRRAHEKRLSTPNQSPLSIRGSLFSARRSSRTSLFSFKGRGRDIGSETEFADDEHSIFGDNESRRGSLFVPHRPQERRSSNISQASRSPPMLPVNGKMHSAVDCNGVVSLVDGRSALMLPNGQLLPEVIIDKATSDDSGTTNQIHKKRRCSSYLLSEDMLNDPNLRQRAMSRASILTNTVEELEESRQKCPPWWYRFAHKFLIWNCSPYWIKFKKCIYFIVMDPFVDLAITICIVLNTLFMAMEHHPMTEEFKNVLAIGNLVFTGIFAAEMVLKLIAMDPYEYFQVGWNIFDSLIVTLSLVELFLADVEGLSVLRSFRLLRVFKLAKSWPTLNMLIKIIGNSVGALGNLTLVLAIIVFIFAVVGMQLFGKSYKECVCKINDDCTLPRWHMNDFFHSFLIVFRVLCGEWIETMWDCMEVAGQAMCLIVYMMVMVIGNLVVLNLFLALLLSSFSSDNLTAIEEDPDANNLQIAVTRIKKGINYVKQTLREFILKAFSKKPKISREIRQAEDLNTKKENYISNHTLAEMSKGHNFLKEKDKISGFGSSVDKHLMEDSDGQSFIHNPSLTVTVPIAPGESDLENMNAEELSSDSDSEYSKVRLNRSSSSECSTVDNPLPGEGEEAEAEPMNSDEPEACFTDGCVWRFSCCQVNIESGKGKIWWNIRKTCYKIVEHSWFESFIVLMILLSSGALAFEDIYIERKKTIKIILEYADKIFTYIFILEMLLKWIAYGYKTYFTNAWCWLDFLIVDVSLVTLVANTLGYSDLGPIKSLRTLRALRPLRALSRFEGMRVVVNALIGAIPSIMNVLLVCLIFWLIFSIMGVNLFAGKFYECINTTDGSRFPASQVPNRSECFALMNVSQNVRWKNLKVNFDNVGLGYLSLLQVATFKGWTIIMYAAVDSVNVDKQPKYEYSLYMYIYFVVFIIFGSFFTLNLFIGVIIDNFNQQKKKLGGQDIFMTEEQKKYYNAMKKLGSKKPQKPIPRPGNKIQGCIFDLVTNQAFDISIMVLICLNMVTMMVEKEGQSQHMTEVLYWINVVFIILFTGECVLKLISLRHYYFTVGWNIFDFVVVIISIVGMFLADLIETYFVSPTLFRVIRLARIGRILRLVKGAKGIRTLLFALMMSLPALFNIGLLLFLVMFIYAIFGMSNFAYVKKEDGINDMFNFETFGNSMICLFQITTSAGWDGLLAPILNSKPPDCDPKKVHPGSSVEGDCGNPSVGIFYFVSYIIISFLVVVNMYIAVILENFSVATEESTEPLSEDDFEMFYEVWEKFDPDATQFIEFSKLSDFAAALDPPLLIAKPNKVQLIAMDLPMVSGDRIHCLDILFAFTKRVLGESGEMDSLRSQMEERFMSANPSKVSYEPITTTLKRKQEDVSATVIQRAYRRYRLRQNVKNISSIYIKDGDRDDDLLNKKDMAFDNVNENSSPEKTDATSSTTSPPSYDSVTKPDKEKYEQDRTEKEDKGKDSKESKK

α3β4 = target: T10, α3β4 (Homo sapiens, UniProt P30926+P32297); experiment: Ion channel panel (IonWorks Barracuda): α3β4; type: cell-based; conditions: 100% = no change, <100% = inhibition
T10 construct: host or cells: HEK293 or CHO
Summary of the method: as §1

NR2B = target: T11, NR2B (Homo sapiens, UniProt Q13224); experiment: Ion channel panel (IonWorks Barracuda): NR2B; type: cell-based; conditions: 100% = no change, <100% = inhibition
T11 construct: host or cells: HEK293 or CHO
Summary of the method: as §1

Kir2.1 = target: T12, Kir2.1 (Homo sapiens, UniProt P63252); experiment: Ion channel panel (IonWorks Barracuda): Kir2.1; type: cell-based; conditions: 100% = no change, <100% = inhibition
T12 construct: host or cells: HEK293 or CHO
Summary of the method: as §1

NR2A = target: T13, NR2A (Homo sapiens, UniProt Q12879); experiment: Ion channel panel (IonWorks Barracuda): NR2A; type: cell-based; conditions: 100% = no change, <100% = inhibition
T13 construct: host or cells: HEK293 or CHO
Summary of the method: as §1

TRPA1 = target: T14, TRPA1 (Homo sapiens, UniProt O75762); experiment: Ion channel panel (IonWorks Barracuda): TRPA1; type: cell-based; conditions: 100% = no change, <100% = inhibition
T14 construct: host or cells: HEK293 or CHO
Summary of the method: as §1

5HT3a = target: T15, 5HT3a (Homo sapiens, UniProt P46098); experiment: Ion channel panel (IonWorks Barracuda): 5HT3a; type: cell-based
T15 construct: host or cells: HEK293 or CHO
T15 sequence (P46098 whole entry, looked up): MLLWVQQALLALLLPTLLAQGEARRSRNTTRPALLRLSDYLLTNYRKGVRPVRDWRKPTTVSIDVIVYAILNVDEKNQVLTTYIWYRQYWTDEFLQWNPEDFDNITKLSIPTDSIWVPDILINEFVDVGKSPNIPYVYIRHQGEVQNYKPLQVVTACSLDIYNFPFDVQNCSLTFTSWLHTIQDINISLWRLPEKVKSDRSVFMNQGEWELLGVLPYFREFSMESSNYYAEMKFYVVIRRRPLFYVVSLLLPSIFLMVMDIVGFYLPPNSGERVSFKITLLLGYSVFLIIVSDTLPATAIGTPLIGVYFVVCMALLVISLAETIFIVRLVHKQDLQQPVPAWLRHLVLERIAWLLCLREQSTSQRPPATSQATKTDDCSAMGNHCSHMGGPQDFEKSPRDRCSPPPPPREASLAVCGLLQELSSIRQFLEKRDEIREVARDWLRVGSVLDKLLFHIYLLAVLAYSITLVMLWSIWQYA
Summary of the method: as §1

Nav1.5 = Nav1.5 (Homo sapiens, UniProt Q14524); experiment: in vitro; conditions: 100% = no change; for Activity of Nav1.5 with peptide, expressed as a percentage of the reference compound: peptide at 0.2 μM; for Activity of Nav1.5 with peptide (percentage of the reference compound): peptide at 20 μM
Nav1.5, sequence (Q14524 whole entry): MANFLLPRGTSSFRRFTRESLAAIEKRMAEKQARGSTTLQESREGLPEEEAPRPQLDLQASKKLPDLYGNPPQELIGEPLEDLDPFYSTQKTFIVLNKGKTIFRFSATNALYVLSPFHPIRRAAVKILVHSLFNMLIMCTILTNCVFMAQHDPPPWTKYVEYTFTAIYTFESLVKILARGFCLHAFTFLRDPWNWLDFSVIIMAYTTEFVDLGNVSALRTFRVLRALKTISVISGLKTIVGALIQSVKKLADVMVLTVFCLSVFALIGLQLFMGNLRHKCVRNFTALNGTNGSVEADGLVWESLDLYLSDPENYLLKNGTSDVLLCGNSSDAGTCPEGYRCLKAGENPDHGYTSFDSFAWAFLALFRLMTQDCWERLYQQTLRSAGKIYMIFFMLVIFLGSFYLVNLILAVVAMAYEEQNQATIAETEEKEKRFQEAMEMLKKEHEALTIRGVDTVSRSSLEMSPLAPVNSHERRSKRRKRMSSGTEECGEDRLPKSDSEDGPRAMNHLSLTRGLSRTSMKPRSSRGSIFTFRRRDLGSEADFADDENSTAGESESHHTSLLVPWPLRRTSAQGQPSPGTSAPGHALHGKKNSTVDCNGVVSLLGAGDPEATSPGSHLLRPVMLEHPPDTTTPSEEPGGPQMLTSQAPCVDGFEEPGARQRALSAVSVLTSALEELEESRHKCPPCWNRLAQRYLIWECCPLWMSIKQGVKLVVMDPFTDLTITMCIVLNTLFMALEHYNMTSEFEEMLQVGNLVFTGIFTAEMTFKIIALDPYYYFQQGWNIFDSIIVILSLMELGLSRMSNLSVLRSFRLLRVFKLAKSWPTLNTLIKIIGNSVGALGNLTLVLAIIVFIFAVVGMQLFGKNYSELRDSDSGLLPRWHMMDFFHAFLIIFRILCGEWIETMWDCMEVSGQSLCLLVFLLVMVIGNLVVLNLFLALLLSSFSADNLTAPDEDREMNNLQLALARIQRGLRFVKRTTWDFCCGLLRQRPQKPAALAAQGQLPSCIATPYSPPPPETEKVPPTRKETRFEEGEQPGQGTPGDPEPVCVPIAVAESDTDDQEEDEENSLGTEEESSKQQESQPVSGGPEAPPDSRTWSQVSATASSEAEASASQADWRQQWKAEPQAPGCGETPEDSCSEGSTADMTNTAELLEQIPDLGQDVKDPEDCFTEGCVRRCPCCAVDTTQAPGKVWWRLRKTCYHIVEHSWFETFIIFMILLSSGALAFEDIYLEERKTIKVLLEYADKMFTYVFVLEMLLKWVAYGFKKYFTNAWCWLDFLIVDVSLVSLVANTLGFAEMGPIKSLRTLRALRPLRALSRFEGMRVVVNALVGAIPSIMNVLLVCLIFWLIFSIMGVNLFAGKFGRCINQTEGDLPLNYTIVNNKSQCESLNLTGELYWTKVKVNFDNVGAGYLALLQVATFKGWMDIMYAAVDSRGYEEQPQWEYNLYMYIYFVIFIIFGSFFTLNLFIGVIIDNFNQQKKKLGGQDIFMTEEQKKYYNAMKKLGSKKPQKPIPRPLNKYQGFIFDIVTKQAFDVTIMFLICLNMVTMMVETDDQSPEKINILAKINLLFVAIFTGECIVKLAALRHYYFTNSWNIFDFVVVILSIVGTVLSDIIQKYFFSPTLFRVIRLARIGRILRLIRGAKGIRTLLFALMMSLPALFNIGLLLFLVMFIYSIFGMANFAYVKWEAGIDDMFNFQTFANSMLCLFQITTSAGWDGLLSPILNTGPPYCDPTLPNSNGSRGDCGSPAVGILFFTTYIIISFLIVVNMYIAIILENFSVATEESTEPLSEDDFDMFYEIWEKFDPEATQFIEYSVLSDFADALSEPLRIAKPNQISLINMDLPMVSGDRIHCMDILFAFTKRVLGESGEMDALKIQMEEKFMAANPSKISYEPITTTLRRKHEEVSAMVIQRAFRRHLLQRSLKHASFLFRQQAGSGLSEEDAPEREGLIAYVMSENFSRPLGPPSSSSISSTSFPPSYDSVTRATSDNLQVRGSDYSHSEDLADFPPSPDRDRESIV
Summary of the method: as §1

hERG = hERG (Homo sapiens, UniProt Q12809); experiment: in vitro; conditions: 100% = no change, <100% = inhibition
Summary of the method: as §1

[1] = first of two Nav1.7 columns (probably TP1)
[2] = second of two Nav1.7 columns (probably TP2)
[3] = first of two Nav1.5 columns (probably TP1)
[4] = second of two Nav1.5 columns (probably TP2)

## 34 (GGYSRCQLQGFNCVVRSYGLPTIPCCRGLTCRSYFPGSTYGRCQRY) [compound 34]
Cav2.2; peptide at 0.2 μM
  Activity of Cav2.2 with peptide, expressed as a percentage of the reference compound: 130%
Cav2.2; peptide at 20 μM
  Activity of Cav2.2 with peptide (percentage of the reference compound): 94%
Cav2.1; peptide at 0.2 μM
  Activity of Cav2.1 with peptide, expressed as a percentage of the reference compound: 86%
Cav2.1; peptide at 20 μM
  Activity of Cav2.1 with peptide (percentage of the reference compound): 111%
Kv2.1; peptide at 0.2 μM
  Activity of Kv2.1 with peptide, expressed as a percentage of the reference compound: 98%
Kv2.1; peptide at 20 μM
  Activity of Kv2.1 with peptide (percentage of the reference compound): 97%
GABA; peptide at 0.2 μM
  Activity of GABA with peptide, expressed as a percentage of the reference compound: 107%
GABA; peptide at 20 μM
  Activity of GABA with peptide (percentage of the reference compound): 117%
Kv1.3; peptide at 0.2 μM
  Activity of Kv1.3 with peptide, expressed as a percentage of the reference compound: 108%
Kv1.3; peptide at 20 μM
  Activity of Kv1.3 with peptide (percentage of the reference compound): 100%
Kv1.1; peptide at 0.2 μM
  Activity of Kv1.1 with peptide, expressed as a percentage of the reference compound: 109%
Kv1.1; peptide at 20 μM
  Activity of Kv1.1 with peptide (percentage of the reference compound): 111%
Kv1.2; peptide at 0.2 μM
  Activity of Kv1.2 with peptide, expressed as a percentage of the reference compound: 96%
Kv1.2; peptide at 20 μM
  Activity of Kv1.2 with peptide (percentage of the reference compound): 51%
α4β2; peptide at 0.2 μM
  Activity of a4b2 with peptide, expressed as a percentage of the reference compound: 81%
α4β2; peptide at 20 μM
  Activity of a4b2 with peptide (percentage of the reference compound): 51%
TRPV1; peptide at 0.2 μM
  Activity of TRPV1 with peptide, expressed as a percentage of the reference compound: 110%
TRPV1; peptide at 20 μM
  Activity of TRPV1 with peptide (percentage of the reference compound): 71%
Nav1.7; [1]
  Activity of Nav1.7 with peptide, expressed as a percentage of the reference compound: 102%
  Activity of Nav1.7 with peptide (percentage of the reference compound): 86%
Nav1.7; [2]
  Activity of Nav1.7 with peptide, expressed as a percentage of the reference compound: 104%
  Activity of Nav1.7 with peptide (percentage of the reference compound): 80%
α3β4; peptide at 0.2 μM
  Activity of a3b4 with peptide, expressed as a percentage of the reference compound: 103%
α3β4; peptide at 20 μM
  Activity of a3b4 with peptide (percentage of the reference compound): 97%
NR2B; peptide at 0.2 μM
  Activity of NR2B with peptide, expressed as a percentage of the reference compound: 127%
NR2B; peptide at 20 μM
  Activity of NR2B with peptide (percentage of the reference compound): 66%
Kir2.1; peptide at 0.2 μM
  Activity of Kir2.1 with peptide, expressed as a percentage of the reference compound: 97%
Kir2.1; peptide at 20 μM
  Activity of Kir2.1 with peptide (percentage of the reference compound): 50%
NR2A; peptide at 0.2 μM
  Activity of NR2A with peptide, expressed as a percentage of the reference compound: 112%
NR2A; peptide at 20 μM
  Activity of NR2A with peptide (percentage of the reference compound): 77%
TRPA1; peptide at 0.2 μM
  Activity of TRPA1 with peptide, expressed as a percentage of the reference compound: 91%
TRPA1; peptide at 20 μM
  Activity of TRPA1 with peptide (percentage of the reference compound): 97%
5HT3a
  Activity of 5HT3a with peptide (percentage of the reference compound): 97%
  Activity of 5HT3a with peptide, expressed as a percentage of the reference compound: 114%
Nav1.5; [3]
  Activity of Nav1.5 with peptide, expressed as a percentage of the reference compound: 111%
  Activity of Nav1.5 with peptide (percentage of the reference compound): 101%
Nav1.5; [4]
  Activity of Nav1.5 with peptide, expressed as a percentage of the reference compound: 113%
  Activity of Nav1.5 with peptide (percentage of the reference compound): 101%
hERG; peptide at 0.2 μM
  Activity of hERG with peptide, expressed as a percentage of the reference compound: 84%
hERG; peptide at 20 μM
  Activity of hERG with peptide (percentage of the reference compound): 66%
